One series addresses T1, PABPC1-His6 (human, UniProt P11940 1-636).
T1 construct: PABPC1, human, full length; Written PABPC1-His6; also called His6-tagged PABPC1; full length PABPC1; source: E. coli BL21, purified (Ni beads, eluted with imidazole, dialyzed)
Description: pull-down; GST pull-down: 20 μg purified Gst-MKRN or MKRN3 truncation, 20 μg PABP-His6 or truncation and Glutathione Sepharose 4B, 4°C overnight in 500 μl of 20 mM Tris-Cl, 100 mM NaCl, 5 mM MgCl2, 1 mM EDTA, 1 mM DTT, 0.5% NP-40, 10 μg/ml BSA, pH 7.5; five washes; Coomassie staining and anti-His immunoblot. The following applies: both partners purified.

The target of a further series is T2, PABPC3-His6 (human, UniProt Q9H361 1-631).
T2 construct: PABPC3, human; also called His6-tagged PABPC3; source: E. coli BL21, purified (Ni beads, eluted with imidazole, dialyzed)
The series is described as above. Conditions: both partners purified.

The target of a further series is PABPC1 (human, UniProt P11940 1-636). Kind of series: EMSA; unmodified; EMSA Binding Buffer (Beyotime, 5x stock; composition, salt and pH not given), room temperature, 1 h; 8% polyacrylamide 0.5x TBE gel. Conditions: protein: recombinant; tags: Flag-His6 (pET28a-PABPC1-Flag-His6); label: 32P (gamma-32P, stated at 3' end by T4 PNK); single strand. In general terms: A gel shift assay detects complexes by their altered migration in electrophoresis.

The target in the next series is PABPC4 (human, UniProt Q13310 1-644). The series is described as above. The following applies: protein: recombinant; tags: Flag-His6 (pET28a-PABPC4-Flag-His6); label: 32P (gamma-32P, stated at 3' end by T4 PNK); single strand.

Three molecules from publication PMC8053111, “MKRN3-mediated ubiquitination of Poly(A)-binding proteins modulates the stability and translation of GNRH1 mRNA in mammalian puberty” (Nucleic Acids Research, 2021) can be followed below.

T1 sequence (P11940 whole entry): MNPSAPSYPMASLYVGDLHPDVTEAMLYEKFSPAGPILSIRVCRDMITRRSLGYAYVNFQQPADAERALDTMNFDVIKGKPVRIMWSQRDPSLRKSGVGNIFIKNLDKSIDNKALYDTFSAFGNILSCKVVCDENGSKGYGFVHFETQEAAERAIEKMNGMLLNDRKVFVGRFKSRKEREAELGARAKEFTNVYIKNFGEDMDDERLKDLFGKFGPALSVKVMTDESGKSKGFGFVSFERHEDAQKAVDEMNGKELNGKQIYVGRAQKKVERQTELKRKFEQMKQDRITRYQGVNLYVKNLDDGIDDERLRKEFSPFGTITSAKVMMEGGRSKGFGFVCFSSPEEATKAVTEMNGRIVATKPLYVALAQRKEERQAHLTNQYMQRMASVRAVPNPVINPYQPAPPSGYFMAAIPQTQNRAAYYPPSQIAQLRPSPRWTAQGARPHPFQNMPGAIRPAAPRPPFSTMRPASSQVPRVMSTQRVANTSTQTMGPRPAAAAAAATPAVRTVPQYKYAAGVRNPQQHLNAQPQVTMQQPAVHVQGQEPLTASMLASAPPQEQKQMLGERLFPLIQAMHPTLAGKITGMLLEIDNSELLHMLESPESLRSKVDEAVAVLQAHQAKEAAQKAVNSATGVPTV
PABPC4, sequence (Q13310 whole entry): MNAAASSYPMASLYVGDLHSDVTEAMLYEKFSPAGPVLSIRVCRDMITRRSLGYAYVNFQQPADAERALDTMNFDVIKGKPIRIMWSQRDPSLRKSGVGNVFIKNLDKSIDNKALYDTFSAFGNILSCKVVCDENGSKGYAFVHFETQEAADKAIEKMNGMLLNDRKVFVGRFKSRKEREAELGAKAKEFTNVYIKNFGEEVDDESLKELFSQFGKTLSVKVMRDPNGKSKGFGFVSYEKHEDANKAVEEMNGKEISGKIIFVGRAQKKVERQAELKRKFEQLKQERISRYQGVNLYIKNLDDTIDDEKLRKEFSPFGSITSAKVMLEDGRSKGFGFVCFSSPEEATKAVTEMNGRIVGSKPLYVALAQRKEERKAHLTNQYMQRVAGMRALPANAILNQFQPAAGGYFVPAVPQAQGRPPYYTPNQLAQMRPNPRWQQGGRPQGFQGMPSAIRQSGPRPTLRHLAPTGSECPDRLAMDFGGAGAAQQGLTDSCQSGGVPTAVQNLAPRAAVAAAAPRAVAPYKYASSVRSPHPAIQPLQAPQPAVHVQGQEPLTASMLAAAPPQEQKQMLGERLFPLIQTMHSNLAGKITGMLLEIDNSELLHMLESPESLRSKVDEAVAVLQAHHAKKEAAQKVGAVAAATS
T2 sequence (Q9H361 whole entry): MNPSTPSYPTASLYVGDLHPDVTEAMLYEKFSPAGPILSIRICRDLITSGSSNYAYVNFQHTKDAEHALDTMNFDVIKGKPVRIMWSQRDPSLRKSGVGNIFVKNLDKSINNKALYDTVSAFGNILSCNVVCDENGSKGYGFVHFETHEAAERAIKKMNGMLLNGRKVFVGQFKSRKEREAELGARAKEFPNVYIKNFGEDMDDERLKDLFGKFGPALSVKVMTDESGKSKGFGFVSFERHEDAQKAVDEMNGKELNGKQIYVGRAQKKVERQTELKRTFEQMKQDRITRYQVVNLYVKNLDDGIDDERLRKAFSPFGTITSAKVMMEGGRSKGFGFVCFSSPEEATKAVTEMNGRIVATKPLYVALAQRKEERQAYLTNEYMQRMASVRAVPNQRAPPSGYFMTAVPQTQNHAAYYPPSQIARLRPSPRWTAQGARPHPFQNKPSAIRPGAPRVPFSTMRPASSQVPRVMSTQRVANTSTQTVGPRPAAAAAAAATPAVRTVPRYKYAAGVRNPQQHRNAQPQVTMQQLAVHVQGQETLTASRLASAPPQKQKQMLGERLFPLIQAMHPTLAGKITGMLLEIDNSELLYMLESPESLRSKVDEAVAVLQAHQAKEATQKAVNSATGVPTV
PABPC1, sequence (P11940 whole entry): as the sequence (P11940 whole entry) above

B1: recombinant Gst-tagged MKRN3 (natural protein, human, UniProt Q13064 1-507, looked up)
chain: MEEPAAPSEAHEAAGAQAGAEAAREGVSGPDLPVCEPSGESAAPDSALPHAARGWAPFPVAPVPAHLRRGGLRPAPASGGGAWPSPLPSRSSGIWTKQIICRYYIHGQCKEGENCRYSHDLSGRKMATEGGVSPPGASAGGGPSTAAHIEPPTQEVAEAPPAASSLSLPVIGSAAERGFFEAERDNADRGAAGGAGVESWADAIEFVPGQPYRGRWVASAPEAPLQSSETERKQMAVGSGLRFCYYASRGVCFRGESCMYLHGDICDMCGLQTLHPMDAAQREEHMRACIEAHEKDMELSFAVQRGMDKVCGICMEVVYEKANPNDRRFGILSNCNHSFCIRCIRRWRSARQFENRIVKSCPQCRVTSELVIPSEFWVEEEEEKQKLIQQYKEAMSNKACRYFAEGRGNCPFGDTCFYKHEYPEGWGDEPPGPGGGSFSAYWHQLVEPVRMGEGNMLYKSIKKELVVLRLASLLFKRFLSLRDELPFSEDQWDLLHYELEEYFNLIL
notes: MKRN3, human, full length; Written Gst-MKRN3; also called Gst-MKRN3; full length MKRN3; source: E. coli BL21, purified (glutathione beads, eluted with reduced glutathione, dialyzed)
Take B1: the binding result in the series with PABPC1-His6 and in the series with PABPC3-His6 was “binds” each time.

With AAAAAAAAAAAAAAAAAAAAAAAAAAAAAA (ssRNA) [(A)30 RNA], the binding result with PABPC1 and in the series with PABPC4 was “binds” throughout.

B2: Gst-MKRN3 middle region (126-295aa) (domain or fragment, human, UniProt Q13064 126-295, looked up)
chain: MATEGGVSPPGASAGGGPSTAAHIEPPTQEVAEAPPAASSLSLPVIGSAAERGFFEAERDNADRGAAGGAGVESWADAIEFVPGQPYRGRWVASAPEAPLQSSETERKQMAVGSGLRFCYYASRGVCFRGESCMYLHGDICDMCGLQTLHPMDAAQREEHMRACIEAHEK
notes: source: E. coli BL21, purified (glutathione beads, eluted with reduced glutathione, dialyzed)
As to B2, the binding result with PABPC1-His6 was “binds”.
